From the supplement of paper PMC10724198
± gives the standard deviation of the averaged measurements.

System: Saccharomyces cerevisiae
Assay: protein stability index of tFT-peptide fusion (C-terminal peptide) (PSI (0-1 scale)); higher = more stable (slower turnover)
Details: genetic background: wild type; temperature: 30 C
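Also: PSI is a weighted mean of sequencing reads over stability bins, variants kept only with over 10 reads, mCherry proximal and sfGFP distal, peptide attached via GGGS linker.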

Row | Sequence | protein stability index
1 | PHPRRSTKTQRR | 0.7878 ± 0.0045
2 | PHPTPGTPEPRD | 0.744 ± 0.17
3 | PHSLPPPTPPHS | 0.629 ± 0.047
4 | PHSPLSPAPQSP | 0.787 ± 0.02
5 | PHTFNVRPFHPD | 0.674 ± 0.034
6 | PHTLKPNPLSTA | 0.61 ± 0.063
7 | PHTLPPLLRHAP | 0.693 ± 0.015
8 | PHVCPVLSAAGR | 0.629 ± 0.044
9 | PHYCSAYTAGHG | 0.72 ± 0.036
10 | PIELTQRASVPP | 0.6592 ± 0.0052
11 | PIFPALPRLSPS | 0.725 ± 0.022
12 | PIFPFSFFLPLI | 0.605 ± 0.011
13 | PIFPPLTSPSPP | 0.68 ± 0.032
14 | PILSGILFMSPP | 0.755 ± 0.0092
15 | PIPPRLPPPPPP | 0.589 ± 0.057
16 | PISLSFPPPLHP | 0.65 ± 0.017
17 | PKKNQSKQRKKT | 0.708 ± 0.05
18 | PKTPRFWLLFPA | 0.699 ± 0.022
19 | PKTSTPPPTSPA | 0.675 ± 0.0073
20 | PLALARSPPPSP | 0.671 ± 0.02
21 | PLALLHSHPPAN | 0.677 ± 0.0066
22 | PLAPLLSPPAFP | 0.808 ± 0.12
23 | PLAPPLPPPGPL | 0.74 ± 0.022

Row | Sequence | protein stability index
24 | PLAPPSPPPAPP | 0.6618 ± 0.00085
25 | PLCVICRRWGAS | 0.646 ± 0.046
26 | PLEPDFLIGGNA | 0.807 ± 0.16
27 | PLEYPAQATMKP | 0.657 ± 0.021
28 | PLFLPLVPPQIL | 0.682 ± 0.028
29 | PLFPPPSLLTPH | 0.719 ± 0.14
30 | PLGGPYNSHMFT | 0.956 ± 0.038
31 | PLHLLPPPSSYP | 0.759 ± 0.033
32 | PLHPDSCGSLSS | 0.647 ± 0.038
33 | PLHPPATPAATT | 0.69 ± 0.025
34 | PLHRPLPRPPSP | 0.745 ± 0.019
35 | PLLHDSHAIIPH | 0.716 ± 0.079
36 | PLLPLLPSPASP | 0.674 ± 0.0098
37 | PLLPRLPPLSPP | 0.691 ± 0.07
38 | PLLRRLFPLSSR | 0.608 ± 0.052
39 | PLLYSDRPSIFL | 0.663 ± 0.026
40 | PLNPSPSCPPTL | 0.676 ± 0.023
41 | PLPAPSPLPSPL | 0.735 ± 0.038
42 | PLPCLPPAGSTP | 0.818 ± 0.02
43 | PLPFSTSPYAGR | 0.675 ± 0.011
44 | PLPHPPPLALRT | 0.655 ± 0.063
45 | PLPKARRHHSPA | 0.653 ± 0.033
46 | PLPLPSLSAIFL | 0.677 ± 0.016

Row | Sequence | protein stability index
47 | PLPLPSPPPASP | 0.732 ± 0.025
48 | PLPLSPLLLPPR | 0.6836 ± 0.0045
49 | PLPPAPPSLSPP | 0.651 ± 0.01
50 | PLPPHPPPPRPL | 0.698 ± 0.035
51 | PLPPLAPPHRSP | 0.682 ± 0.091
52 | PLPPLLAGAGLS | 0.704 ± 0.018
53 | PLPPLTPASPHP | 0.72 ± 0.035
54 | PLPPPLPASSPP | 0.681 ± 0.045
55 | PLPPPLPLSSPP | 0.67 ± 0.012
56 | PLPPPPAHPPPP | 0.616 ± 0.03
57 | PLPPPPPLPLSP | 0.693 ± 0.07
58 | PLPPPPPPIPLT | 0.702 ± 0.14
59 | PLPPPPPPPSSP | 0.726 ± 0.011
60 | PLPPPPVSLPAP | 0.617 ± 0.064
61 | PLPPRPHPPPPY | 0.695 ± 0.037
62 | PLPPRPPPLPLP | 0.716 ± 0.013
63 | PLPPTPPPALSQ | 0.7 ± 0.018
64 | PLPRLPLLPPLR | 0.67 ± 0.045
65 | PLPSCTLCRPAL | 0.695 ± 0.03
66 | PLPSLSPLPPPL | 0.701 ± 0.017
67 | PLPSPSYLKSPC | 0.705 ± 0.013
68 | PLPSVLFCLTRW | 0.665 ± 0.02
69 | PLPTLPFPCSPS | 0.706 ± 0.016

Row | Sequence | protein stability index
70 | PLPVLFFFSACS | 0.661 ± 0.043
71 | PLRISQLDVVRS | 0.655 ± 0.045
72 | PLRPLPTPRPPP | 0.686 ± 0.0071
73 | PLRYRPPPPPPP | 0.672 ± 0.031
74 | PLSCFIPPVSSW | 0.666 ± 0.027
75 | PLSPLAPPPAPS | 0.661 ± 0.075
76 | PLSPNIHQRPPA | 0.75 ± 0.0096
77 | PLSPPPPFPFPP | 0.71 ± 0.064
78 | PLSPPVSLPLTP | 0.672 ± 0.098
79 | PLSPSAVGCPGF | 0.645 ± 0.16
80 | PLSPSFAPPSPA | 0.69672 ± 0.00044
81 | PLSPTTRTRSQS | 0.642 ± 0.067
82 | PLSTGLPFPRSP | 0.718 ± 0.028
83 | PLTACPSAPTLP | 0.667 ± 0.0078
84 | PLTGSLIPLFPL | 0.732 ± 0.029
85 | PLTPPRLPRPFH | 0.7123 ± 0.0065
86 | PLVAGRVIVTLR | 0.554 ± 0.011
87 | PLVPISPLPYLP | 0.737 ± 0.012
88 | PLVPPPADPLCV | 0.63 ± 0.0071
89 | PLVRGSLGALGR | 0.657 ± 0.12
90 | PLYSKHPTRFFP | 0.714 ± 0.011
91 | PLYTSFSPSFYL | 0.669 ± 0.043
92 | PMFESFHLPAPI | 0.715 ± 0.018

Row | Sequence | protein stability index
93 | PNAFTEPTHPGR | 0.742 ± 0.066
94 | PNFYPLWLNLPL | 0.813 ± 0.086
95 | PNLIFHHSFSFL | 0.692 ± 0.031
96 | PNPTPYRRPCPP | 0.6846 ± 0.0041
97 | PNTSVAATPHDF | 0.67 ± 0.085
98 | PNVSPTPPYSSP | 0.691 ± 0.023
99 | PNYQRRTKTNSP | 0.703 ± 0.04
100 | PPAALPPSTLFS | 0.673 ± 0.04
101 | PPAFFPHSRPLL | 0.598 ± 0.038
102 | PPAGCSPSPRSP | 0.66 ± 0.056
103 | PPALPPTRPPVS | 0.696 ± 0.047
104 | PPALRPNPPLPL | 0.7769 ± 0.0016
105 | PPAPLPSPRRSL | 0.696 ± 0.065
106 | PPAPPPPLLNLP | 0.714 ± 0.014
107 | PPAPPTSLPSPL | 0.726 ± 0.019
108 | PPAPSPPQPSPL | 0.686 ± 0.0088
109 | PPAPSPPVPPQL | 0.727 ± 0.026
110 | PPAPSSLPSPPS | 0.715 ± 0.017
111 | PPAPTPLSPLAS | 0.693 ± 0.051
112 | PPAPTPSPSPPP | 0.68 ± 0.1
113 | PPARATPHDRCP | 0.724 ± 0.037
114 | PPASLPPPTAFN | 0.764 ± 0.049
115 | PPASLRRPRSYL | 0.748 ± 0.025

Row | Sequence | protein stability index
116 | PPASPSPSLLSP | 0.6491 ± 0.0025
117 | PPASSPPSRPPP | 0.62626 ± 0.00058
118 | PPATPPPPPPFL | 0.68 ± 0.15
119 | PPATPPRPLLPP | 0.672 ± 0.091
120 | PPCPVTSFRPSI | 0.755 ± 0.05
121 | PPDPPPHASPAP | 0.72 ± 0.03
122 | PPDRNPANTSCD | 0.638 ± 0.029
123 | PPFPPDTLPLLP | 0.746 ± 0.017
124 | PPFPPPCFPPPL | 0.72 ± 0.0084
125 | PPFRPFTSPVTY | 0.579 ± 0.031
126 | PPFSPSPPHVCP | 0.673 ± 0.045
127 | PPFVLLVPTSLS | 0.68 ± 0.018
128 | PPGLPLSPCPPP | 0.685 ± 0.061
129 | PPGSFWLQARVR | 0.705 ± 0.071
130 | PPGYGISYLLIE | 0.66 ± 0.07
131 | PPHAYTSTPSLF | 0.67 ± 0.028
132 | PPHGPPPLPPPS | 0.678 ± 0.15
133 | PPHIIPHPKAHT | 0.687 ± 0.017
134 | PPHLPPPPSPSV | 0.6729 ± 0.0053
135 | PPHPAPPLQPQT | 0.64 ± 0.14
136 | PPHPPPVTPHAS | 0.722 ± 0.029
137 | PPHPPRCRRSPC | 0.718 ± 0.037
138 | PPHPPYPPQPSL | 0.7021 ± 0.005

Row | Sequence | protein stability index
139 | PPHPQRANAPGH | 0.6615 ± 0.0057
140 | PPHTSPLSPRPP | 0.658 ± 0.052
141 | PPIPLPPLAPPL | 0.699 ± 0.038
142 | PPLALLLSPVPP | 0.688 ± 0.046
143 | PPLAPASPSPLP | 0.698 ± 0.023
144 | PPLCTTPTPRRV | 0.735 ± 0.041
145 | PPLFPPPPPLPR | 0.718 ± 0.027
146 | PPLFTLSFSHFV | 0.679 ± 0.021
147 | PPLHPPLPPPPS | 0.71 ± 0.06
148 | PPLLALSASRVT | 0.698 ± 0.017
149 | PPLLLLRRRSPS | 0.699 ± 0.062
150 | PPLLPPPPPPAP | 0.666 ± 0.032
151 | PPLLPYHPTRFD | 0.713 ± 0.012
152 | PPLLRAPLLPPC | 0.708 ± 0.021
153 | PPLPAPPPLRPP | 0.606 ± 0.012
154 | PPLPAPSPPAPP | 0.68 ± 0.022
155 | PPLPDSPPPVPP | 0.633 ± 0.017
156 | PPLPFPSLPTPP | 0.696 ± 0.042
157 | PPLPLPPLALTR | 0.722 ± 0.037
158 | PPLPLPPRPTPP | 0.716 ± 0.071
159 | PPLPPLSPAPPR | 0.681 ± 0.0073
160 | PPLPPPHLAFLH | 0.685 ± 0.035
